From PMC12311895, “Single-Molecule Protein Interactions and Unfolding Revealed by Plasmon-Enhanced Fluorescence” (Analytical Chemistry, 2025)
Where no end group is shown, it is not given here.

Molecular target: T1, MBP-PDZ protein (Erbin PDZ) with a single cysteine, conjugated to DNA (UniProt Q96RT1 1321-1410, ATTO 532 (labelled with ATTO 532-NHS); amine-modified DNA oligonucleotide coupled through sulfo-SMCC to the single cysteine between MBP and PDZ)
T1 construct: stretch between MBP and the PDZ domain that holds the single introduced cysteine; Erbin PDZ domain; Held on DNA-coated 40 by 80 nm gold nanorods by DNA hybridisation; About 50% of the protein in the conjugation mixture carried no DNA; also called Erbin PDZ protein; PDZ-DNA; not shown: MBP, N-terminal, kept
Assay: single-molecule plasmon-enhanced fluorescence microscopy (TIRF); MBP-PDZ held on gold nanorods (40 by 80 nm) by DNA hybridisation, particles immobilised on glass; ATTO 655-labeled peptide in solution; 637 nm laser; 20 ms exposure; koff from bright times (double exponential fit), kon from event frequency against proteins per particle
Conditions: both partners purified

Kd: 1 to 5.1 µM | kon: 1.2e+07 M⁻¹ s⁻¹
Binder: CGAGRGSIDTWV (also: ATTO 655 label (site not given here)) [ATTO 655-labeled target peptide]
